According to paper PMC6953191, “OsNAC2 integrates auxin and cytokinin pathways to modulate rice root development”:

T1: OsNAC2 (Oryza sativa L. (rice), UniProt Q7XUV6 1-343)
T1 sequence: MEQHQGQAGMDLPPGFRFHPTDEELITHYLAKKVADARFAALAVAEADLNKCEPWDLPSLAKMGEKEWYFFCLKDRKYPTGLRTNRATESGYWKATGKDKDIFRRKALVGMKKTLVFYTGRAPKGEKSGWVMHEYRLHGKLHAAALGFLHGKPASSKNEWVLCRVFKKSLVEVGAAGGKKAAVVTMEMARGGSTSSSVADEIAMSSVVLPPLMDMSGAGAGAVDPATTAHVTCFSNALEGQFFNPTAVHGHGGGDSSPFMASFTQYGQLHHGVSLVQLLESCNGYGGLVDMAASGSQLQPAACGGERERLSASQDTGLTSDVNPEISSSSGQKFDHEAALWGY

B1: OsCKX4 promoter-derived 3x CGGCCACGCA probe (dsDNA)
DNA 1: CGGCCACGCACGGCCACGCACGGCCACGCA
DNA 2: TGCGTGGCCGTGCGTGGCCGTGCGTGGCCG
B2: unlabelled 3x CGGCCACGCA competitor (dsDNA)
DNA 1: B1 DNA 1
DNA 2: B1 DNA 2

Legend:
OsNAC2 [1] = molecular target: T1, OsNAC2; test: EMSA; increasing OsNAC2; 2.5 mM MgCl2; salmon sperm DNA; 50 mM Tris-HCl pH 8.0, 100 mM KCl, 2.5 mM MgCl2, 0.2 mM DTT, 2 ug salmon sperm DNA, 10% glycerol, 20 uL, 25 C 20 min; probe printed as 200 nmol; 10% PAGE, 0.5x; conditions: protein: recombinant; tags: pET-28a vector tag (BamHI/XhoI); chain copies: 2; label: FAM; blunt
OsNAC2 [2] = molecular target: T1, OsNAC2; test: competition EMSA; unlabelled probe weakened binding of FAM probe N1; 50 mM Tris-HCl pH 8.0, 100 mM KCl, 2.5 mM MgCl2, 0.2 mM DTT, 2 ug salmon sperm DNA, 10% glycerol, 20 uL, 25 C 20 min; probe printed as 200 nmol; 10% PAGE, 0.5x; conditions: protein: recombinant; tags: pET-28a vector tag (BamHI/XhoI); chain copies: 2; blunt

Binder	binding result (OsNAC2 [1])	binding result (OsNAC2 [2])
B1	binds	
B2		binds
